pIC50: −log10 of the molar value.
Key:
[1] = biological target: BBMV proteins (receptor binding sites) in brush border membrane vesicles from fall armyworm (FAW; Spodoptera frugiperda) larval midgut; assay: heterologous competition: unlabeled Cry1Ab against 0.5 nM 125I Cry1Be on FAW BBMVs
[2] = biological target: BBMV proteins (receptor binding sites) in brush border membrane vesicles from European corn borer (ECB; Ostrinia nubilalis) larval midgut; assay: homologous competition: unlabeled Cry1Ab against 0.5 nM 125I Cry1Ab on ECB BBMVs
[3] = biological target: BBMV proteins (receptor binding sites) in brush border membrane vesicles from fall armyworm (FAW; Spodoptera frugiperda) larval midgut; assay: homologous competition: unlabeled Cry1Ab against 0.5 nM 125I Cry1Ab on FAW BBMVs
[4] = biological target: BBMV proteins (receptor binding sites) in brush border membrane vesicles from fall armyworm (FAW; Spodoptera frugiperda) larval midgut; assay: heterologous competition: unlabeled Cry1Ab against 0.5 nM 125I Cry1Be on FAW BBMVs; reference is homologous Cry1Be

“Cry1Ab insecticidal protein (purified truncated Cry toxin) (from UniProt P0A370 29-612) (ligand)” showed a pIC50 [1] of 6.00, a pIC50 [2] of 9.30 and a pIC50 [3] of 9.52. For the same substance, the fold lower affinity to compete for the binding of Cry1Be [4] was 500 fold.
